{
  "source": "patent US10765706B2",
  "about": "“Method of stem cell delivery into the brain during chronic disease using blood brain barrier permeabilizers” (University of South Florida, priority 2015, dated 2020)",
  "origin": "cited, not measured here",
  "system": "stroke patients",
  "conditions": "acute stroke patients",
  "data": [
    {"molecule": "t-PA: thrombolytic agent, tissue plasminogen activator (protein, UniProt P00750 36-562, looked up) Tissue-type plasminogen …: SYQVICRDEKTQMIYQQHQSWLRPVLRSNRVEYCWCNSGRAQCHSVPVKSCSEPRCFNGGTCQQALYFSDFVCQCPEGFAGKCCEIDTRATCYEDQGISYRGTWSTAESGAECTNWNSSALAQKPYSGRRPDAIRLGLGNHNYCRNPDRDSKPWCYVFKAGKYSSEFCSTPACSEGNSDCYFGNGSAYRGTHSLTESGASCLPWNSMILIGKVYTAQNPSAQALGLGKHNYCRNPDGDAKPWCHVLKNRRLTWEYCDVPSCSTCGLRQYSQPQFRIKGGLFADIASHPWQAAIFAKHRRSPGERFLCGGILISSCWILSAAHCFQERFPPHHLTVILGRTYRVVPGEEEQKFEVEKYIVHKEFDDDTYDNDIALLQLKSDSSRCAQESSVVRTVCLPPADLQLPDWTECELSGYGKHEALSPFYSERLKEAHVRLYPSSRCTSQHLLNRTVTDNMLCAGDTRSGGPQANLHDACQGDSGGPLVCLNDGRMTLVGIISWGLGCGQKDVPGVYTKVTNYLDWIRDNMRP", "values": [
      {"measurement": "fraction of patients receiving the therapy with enhanced recovery", "value": "⅓"}
    ]}
  ]
}
